Results as given in publication PMC11347170, “Staphylococcal exoribonuclease YhaM destabilizes ribosomes by targeting the mRNA of a hibernation factor”.

Target: YhaM D193A (Staphylococcus aureus JE2 (USA300), UniProt A0A0H2XHZ3 1-313, D193A)
Test: EMSA; 1 mM Mn2+; 15 nM RNA, 0-30 uM YhaM; partial RNA degradation at high protein; EMSA: 50 mM Na-Tricine pH 8.0, 100 mM KCl, 1 mM MnSO4, 37 C 20 min, 20% TBE native gel
Conditions: protein: recombinant; tags: N-terminal His6 (pMCSG7); label: 5'-6-FAM; single strand

Binder: AGGAAAAAACAUUUUAUAAAGGAGA (ssRNA) [RNA_a]
- binding result: binds
